Patent publication US20050136043A1, “TGFbeta signaling inhibitors” (Ludwig Institute for Cancer Research, priority 2003, published 2005)
No end group written: not given here.

Target: GST-TβR-I (GST fused to the cytoplasmic part, residues 148-503, of constitutively active TβR-I T204D, FLAG-tagged at the C-terminus), P36897
Test: cell-based or functional assay

Sequence of GST-TβR-I (GST fused to the cytoplasmic part, residues 148-503, of constitutively active TβR-I T204D, FLAG-tagged at the C-terminus), P36897 (P36897 148-503 T204D, form in doubt): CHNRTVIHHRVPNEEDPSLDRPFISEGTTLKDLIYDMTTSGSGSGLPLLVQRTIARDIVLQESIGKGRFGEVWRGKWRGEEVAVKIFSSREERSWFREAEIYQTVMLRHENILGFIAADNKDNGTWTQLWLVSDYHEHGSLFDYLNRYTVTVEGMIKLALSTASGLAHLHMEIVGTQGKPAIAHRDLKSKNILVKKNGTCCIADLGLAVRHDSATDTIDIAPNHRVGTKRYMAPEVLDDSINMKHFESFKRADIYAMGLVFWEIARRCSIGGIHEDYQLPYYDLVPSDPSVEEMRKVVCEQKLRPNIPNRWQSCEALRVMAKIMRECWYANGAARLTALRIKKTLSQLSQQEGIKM

peptide concentration at which the effect was observed, in vitro kinase assay [µM]	peptide concentration of maximal inhibition, in vitro kinase assay [µM]	Binder
10	200	RQIKIWFQNRRMKWKKTQMGSPSVRCSSMS-OH [antp-Sm2S peptide (penetratin fused to the C-terminus of wild-type Smad2)]
10	200	RQIKIWFQNRRMKWKKTQMGSPSVRCSAMA-OH
